The results in this text go back to patent US20240301043A1 (Q32 BIO, published 2024).

In assay [1] the target is T1, human C3d (human, UniProt P01024 1002-1303).
T1 construct: domain: C3d; also called C3d antigen
Description: ELISA, human C3d coated on plate. (An ELISA detects its analyte on a solid surface through an enzyme-linked reagent.)

Assay [2] deals with T1, human C3d. Description: SPR (Biacore 3000), human C3d amine-coupled to CM5 chip, construct as analyte.
In assay [3] the target is T1, human C3d. Description: ELISA, human C3d coated on plate. This is another data set of the same source.
Assay [4] concerns the target T1, human C3d. Description: ELISA, human C3d coated on plate. The source holds these as a separate data set.

Where a chain is given by its changes, count along the chain named. In names and notes the source's numbering stands. Where two headings read alike, the source gives them in different places.

T1 sequence (P01024 1002-1303 limits assumed): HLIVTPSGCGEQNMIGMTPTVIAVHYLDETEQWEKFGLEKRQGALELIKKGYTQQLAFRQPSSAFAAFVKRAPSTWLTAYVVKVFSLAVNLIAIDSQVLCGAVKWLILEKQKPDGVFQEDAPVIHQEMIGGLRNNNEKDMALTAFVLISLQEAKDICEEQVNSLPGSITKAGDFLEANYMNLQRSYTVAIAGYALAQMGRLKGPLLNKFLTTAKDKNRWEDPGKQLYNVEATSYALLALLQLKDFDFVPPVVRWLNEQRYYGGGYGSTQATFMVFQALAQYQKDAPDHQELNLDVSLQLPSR

B1: Exemplary anti-C3d construct 55 (antibody, mouse IgG1, kappa, V domains shown)
VH: EVQLQQSGPVLVKPGASVKMSCKASGYTFTAYYMNWVRQSHGKSLEWIGVINPYNGGTSYNQKFKGKATLTVDKSSSTAYMELNSLTSEDSAVYYCSSPYWGQGTSVTVSS
VL: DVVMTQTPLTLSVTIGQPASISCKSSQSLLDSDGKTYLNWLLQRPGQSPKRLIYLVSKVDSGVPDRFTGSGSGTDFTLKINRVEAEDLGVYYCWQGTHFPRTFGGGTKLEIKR
notes: also called Exemplary construct 55
Regarding B1, the response in assay [1] was half-maximal at 0.24 nM (EC50).

B2: Exemplary anti-C3d construct 34 (antibody, mouse IgG1, kappa, V domains shown)
VH: B1 VH
VL: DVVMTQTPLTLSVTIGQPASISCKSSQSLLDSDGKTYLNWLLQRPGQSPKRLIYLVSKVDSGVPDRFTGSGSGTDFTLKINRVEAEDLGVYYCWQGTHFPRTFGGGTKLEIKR
notes: muHC2 murine IgG1 heavy chain and muLC2 murine kappa light chain; also called Exemplary construct 34
As to B2, the EC50 (usually the concentration that produces a half-maximal response) in assay [1] was found to be 0.32 nM. Besides, in assay [2], the Kd (commonly the equilibrium constant for the complex coming apart) was 0.888 nM.

B3: Exemplary anti-C3d construct 56 (Fab) (Fab, V domains shown)
VH: B1 VH
VL: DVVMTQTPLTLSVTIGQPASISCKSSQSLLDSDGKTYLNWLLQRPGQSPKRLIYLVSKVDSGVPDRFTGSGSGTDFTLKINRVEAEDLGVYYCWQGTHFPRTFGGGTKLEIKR
notes: also called Exemplary construct 56
B3 had an EC50 in assay [1] of 0.55 nM. Moreover, the Kd in assay [2] came to 0.91 nM.

B4: Exemplary Fusion Construct 99 (other)
heavy: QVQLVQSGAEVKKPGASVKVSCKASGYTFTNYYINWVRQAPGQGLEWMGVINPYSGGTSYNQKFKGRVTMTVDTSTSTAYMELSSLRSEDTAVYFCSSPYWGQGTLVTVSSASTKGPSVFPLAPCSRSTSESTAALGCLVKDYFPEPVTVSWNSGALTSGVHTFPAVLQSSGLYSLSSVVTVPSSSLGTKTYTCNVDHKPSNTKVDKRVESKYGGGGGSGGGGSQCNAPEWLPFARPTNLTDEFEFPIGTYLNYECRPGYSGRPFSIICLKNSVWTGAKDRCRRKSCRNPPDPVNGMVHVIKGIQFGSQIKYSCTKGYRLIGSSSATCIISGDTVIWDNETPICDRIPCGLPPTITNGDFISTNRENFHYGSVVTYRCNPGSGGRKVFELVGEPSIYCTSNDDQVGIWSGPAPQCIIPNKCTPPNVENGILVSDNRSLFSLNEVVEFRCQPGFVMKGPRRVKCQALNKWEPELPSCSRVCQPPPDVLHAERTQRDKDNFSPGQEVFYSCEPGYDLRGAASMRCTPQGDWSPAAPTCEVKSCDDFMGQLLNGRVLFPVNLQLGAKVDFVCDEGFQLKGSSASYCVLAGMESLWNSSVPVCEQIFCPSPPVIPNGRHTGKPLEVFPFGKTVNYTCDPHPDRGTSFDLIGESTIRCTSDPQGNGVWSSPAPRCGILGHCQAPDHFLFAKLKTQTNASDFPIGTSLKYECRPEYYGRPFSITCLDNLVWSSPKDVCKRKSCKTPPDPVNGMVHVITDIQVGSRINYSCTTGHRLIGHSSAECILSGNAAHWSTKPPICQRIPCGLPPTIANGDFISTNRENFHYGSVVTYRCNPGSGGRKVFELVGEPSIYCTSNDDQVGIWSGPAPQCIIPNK
light: DVVMTQSPLSLPVTLGQPASISCKSSQSLLDSDGKTYLNWFQQRPGQSPRRLIYLVSKLDSGVPDRFSGSGSGTDFTLKISRVEAEDVGVYYCWQGTHFPRTFGGGTKVEIKRTVAAPSVFIFPPSDEQLKSGTASVVCLLNNFYPREAKVQWKVDNALQSGNSQESVTEQDSKDSTYSLSSTLTLSKADYEKHKVYACEVTHQGLSSPVTKSFNRGEC
notes: Order chain, linker, modulator follows claim 321
B4 yielded a concentration for a half-maximal effect (EC50) in assay [3] of 1.54 nM.

B5: Exemplary anti-C3d construct 74 (antibody, V domains shown)
VH: QVQLVQSGAEVKKPGASVKVSCKASGYTFTNYYINWVRQAPGQGLEWIGVINPYNGGTSYNQKFKGRATLTVDTSTSTAYMELSSLRSEDTAVYFCSSPYWGQGTLVTVSS
VL: DVVMTQSPLSLPVTLGQPASISCKSSQSLLDSDGKTYLNWFQQRPGQSPRRLIYLVSKLDSGVPDRFSGSGSGTDFTLKISRVEAEDVGVYYCWQGTHFPRTFGGGTKVEIK
notes: Humanized 3d8b VH4 / VK3; also called Exemplary construct 74
As to B5, the EC50 in assay [4] is 0.017 nM. The Kd in assay [2] is 1.34 nM.

B6: Exemplary anti-C3d construct 93 (antibody, human IgG4 S228P, kappa, V domains shown)
VH: B5 VH with I48M, N55S, A68V, L70M
VL: DVVMTQSPLSLPVTLGQPASISCKSSQSLLDSDGKTYLNWFQQRPGQSPRRLIYLVSKLDSGVPDRFSGSGSGTDFTLKISRVEAEDVGVYYCWQGTHFPRTFGGGTKVEIKR
notes: also called Exemplary construct 93
On to B6, for which the Kd in assay [2] turned out to be 10.2 nM. In assay [3], this molecule came in with an EC50 of 0.02 nM.

B7: Exemplary anti-C3d construct 87 (antibody, human IgG4 S228P, kappa)
heavy: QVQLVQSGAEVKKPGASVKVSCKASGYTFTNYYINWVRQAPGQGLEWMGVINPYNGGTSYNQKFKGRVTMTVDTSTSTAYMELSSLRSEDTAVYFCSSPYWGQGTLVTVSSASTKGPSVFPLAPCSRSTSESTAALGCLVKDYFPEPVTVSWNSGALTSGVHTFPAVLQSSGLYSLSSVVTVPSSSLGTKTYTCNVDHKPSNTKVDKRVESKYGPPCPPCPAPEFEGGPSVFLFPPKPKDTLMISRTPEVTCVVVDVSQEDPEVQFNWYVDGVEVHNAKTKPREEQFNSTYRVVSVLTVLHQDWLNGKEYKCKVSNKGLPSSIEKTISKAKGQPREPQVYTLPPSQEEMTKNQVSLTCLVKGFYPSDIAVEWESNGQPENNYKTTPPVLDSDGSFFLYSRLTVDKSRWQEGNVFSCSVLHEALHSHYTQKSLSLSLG
light: B4 light
notes: also called Exemplary construct 87
On to B7, for which, in assay [2], binding was characterised by a dissociation constant (Kd) of 7.57 nM. This molecule yielded an EC50 in assay [3] of 0.02 nM.

B8: Exemplary anti-C3d construct 75 (antibody, V domains shown)
VH: B5 VH with I48M, A68V, L70M
VL: B5 VL
notes: Humanized 3d8b VH5 / VK3; also called Exemplary construct 75
In assay [4], B8 registered an EC50 of 0.029 nM. Moreover, binding in assay [2] was characterised by a dissociation constant (Kd) of 1.63 nM.

B9: Exemplary anti-C3d construct 76 (antibody, V domains shown)
VH: B5 VH with N55H
VL: B5 VL
notes: Humanized 3d8b VH4 N54H / VK3; also called Exemplary construct 76
B9 showed an EC50 in assay [4] of 0.018 nM.

B10: Exemplary anti-C3d construct 79 (antibody, V domains shown)
VH: B5 VH with I48M, N55S, A68V, L70M
VL: B5 VL
notes: Humanized 3d8b VH5 N54S / VK3; also called Exemplary construct 79
Turning to B10, a half-maximal effect in assay [4] (EC50) was put at 0.02 nM.

B11: Exemplary anti-C3d construct 77 (antibody, V domains shown)
VH: B5 VH with I48M, N55H, A68V, L70M
VL: B5 VL
notes: Humanized 3d8b VH5 N54H / VK3; also called Exemplary construct 77
In assay [4], B11 had an EC50 of 0.011 nM.

B12: Exemplary anti-C3d construct 78 (antibody, V domains shown)
VH: B5 VH with N55S
VL: B5 VL
notes: Humanized 3d8b VH4 N54S / VK3; also called Exemplary construct 78
In turn, B12 came in with an EC50 in assay [4] of 0.018 nM.

B13: Exemplary anti-C3d construct 86 (antibody, human IgG4 S228P, kappa)
heavy: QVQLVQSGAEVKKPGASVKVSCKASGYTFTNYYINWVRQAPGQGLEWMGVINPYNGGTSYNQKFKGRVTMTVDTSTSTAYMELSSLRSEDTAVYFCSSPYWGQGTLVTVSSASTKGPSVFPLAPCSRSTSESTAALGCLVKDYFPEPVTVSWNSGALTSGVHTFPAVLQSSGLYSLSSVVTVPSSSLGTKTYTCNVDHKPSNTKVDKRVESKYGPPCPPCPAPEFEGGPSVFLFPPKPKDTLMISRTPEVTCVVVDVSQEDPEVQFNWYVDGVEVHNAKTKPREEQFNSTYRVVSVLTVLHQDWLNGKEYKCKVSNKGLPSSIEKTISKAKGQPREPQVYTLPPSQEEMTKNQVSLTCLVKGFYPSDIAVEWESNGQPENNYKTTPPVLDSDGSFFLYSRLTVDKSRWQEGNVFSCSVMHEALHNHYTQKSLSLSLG
light: B4 light
notes: HC1 (VH5) humanized IgG4 S228P/L235E; LC1 (Vk3) humanized kappa; also called Exemplary construct 86
For the molecule B13, the EC50 in assay [4] and in assay [3] was 0.03 nM throughout. Moreover, in assay [2], the Kd was determined as 14.7 nM.
